Laboratory results published in patent publication US20210395393A1.

B1: TPAi-1 RHP/RKA (antibody, V domains shown)
VH: QVQLVQSGAEVKKPGASVKVSCKASGNTSYWINWVRQATGQGLEWMGRIDPGGGSTGYAQKFQGRVTMTRDTSISTAYMELSSLRSEDTAVYYCASYYYAMAYWGQGTLVTVSS
VL: DVVMTQSPLSLPVTPGEPASISCRSSQSIVHSNGNTYLDWYLQKPGQSPQLLIYKVSNRASGVPDRFSGSGSGTDFTLKISRVEAEDVGVYYCFQGSHVPWTFGGGTKVEIK
B2: TPAi-1 RHP/RKA Fab (Fab, V domains shown)
VH: B1 VH
VL: B1 VL

Molecular target: TPA mutant tenecteplase (human) (UniProt P00750)
Assay: binding ELISA, plate coated with tenecteplase

Chain of TPA mutant tenecteplase (human) (P00750 36-562, change not shown): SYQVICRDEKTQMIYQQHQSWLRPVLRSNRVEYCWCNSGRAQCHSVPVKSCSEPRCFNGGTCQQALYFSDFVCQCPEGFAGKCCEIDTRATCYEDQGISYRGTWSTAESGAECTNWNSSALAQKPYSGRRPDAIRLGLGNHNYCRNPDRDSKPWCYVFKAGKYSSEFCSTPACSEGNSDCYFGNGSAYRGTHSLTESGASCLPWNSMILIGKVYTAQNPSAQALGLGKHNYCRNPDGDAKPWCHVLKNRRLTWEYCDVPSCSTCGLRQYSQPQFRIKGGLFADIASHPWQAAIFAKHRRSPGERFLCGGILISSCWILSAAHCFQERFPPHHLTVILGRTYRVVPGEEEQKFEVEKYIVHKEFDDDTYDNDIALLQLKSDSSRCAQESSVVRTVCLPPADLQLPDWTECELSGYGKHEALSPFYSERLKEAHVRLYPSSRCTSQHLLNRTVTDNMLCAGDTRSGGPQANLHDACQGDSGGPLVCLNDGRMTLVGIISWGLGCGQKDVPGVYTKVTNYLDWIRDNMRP

| Binder | EC50 [nM] |
| --- | --- |
| B1 | 0.633 |
| B2 | 1.31 |
